We go through 41 sequences from the nanobody polyreactivity screen of Harvey et al. (2022).

The data set in a line: yeast display, Sf9 membrane polyspecificity reagent, FACS + sequencing; frameworks hold sequencing errors. The method, boiled down: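 Using colony PCR, genes from sorted yeast display clones were amplified, then sequenced on MiSeq at 2 × 250 and filtered by CDR length. The clones had been stained with 10% biotinylated, detergent-solubilized Sf9 membrane reagent for 1 hour at 4 °C and sorted by FACS into low and high (top ~1%) gates on anti-HA and streptavidin fluorescence. Polyreactivity labels come from the gate of origin.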
Consider “QVQLVESGGGLVQAGGSLRLSCAASGSIFFINAMGWYRQAPGKERELVAAISSGGTTYYADSVKGRFTISRDNAKNTVYLQMNSLKPEDTAVYYCNAAGFPYAHTFFKGLVEYDSWGQGTQVTVSS”, for which the “polyreactivity (PSR sort gate)” value was “low polyreactivity”.
Consider “QVQLVESGGGLVQAGGSLRLSCAASGRTFYANAMGWSRQAPGRERELVAAISTGGDGTYYADSVKGRFTISRDYAKITVYLQMNSLKPEDTAVYDCAVRHRASGILYYYWGQGTQVTVSS”, for which the “polyreactivity (PSR sort gate)” value is given as “low polyreactivity”.
Consider “QVQLVESGGGLVQAGGSLRLSCAASGFTFGYYTMGWYRQAPGKERELVASISWDGGSTYYADSVKGRFTISRDNAKNTVYLQMHSLKPEDTAVYYCATDDYDQLAVGAYDYWGQGTQVTVSS”, for which the “polyreactivity (PSR sort gate)” value is reported as “low polyreactivity”.
In the case of “QVQLVESGGGLVQSGASLRLSCAASGSIFDSYTMGWYRQAPGKEREWVAAISWSGGRTYYADSVKGRFTISRDNAKNTVYLQMNTLKPEDTAVYYCAARNVWKYLFGYDYWGQGTQVTVSS”, the “polyreactivity (PSR sort gate)” value is recorded as “high polyreactivity”.
As to “QVQLVESGGGLVQAGGSLRLSCAASGRTFKYNAMGWYRQAPGKERELVAAISDRGTRKYYADSVKGRFTISRDNAKNSVYLQMNSLKPEDTAVYYCAARVTGKDRWYIYYWGQGTQVTVSS”, the “polyreactivity (PSR sort gate)” value is listed as “high polyreactivity”.
In the case of “QVQLVESGGGLVQAGGSLRLSCAASGRIFGYYMGWYRQAPGKERELVARITFRGGSTYYADSVKGRFTISRDNAKNTVYLQMNSLKPEDTAVYYCNASGKGGSTNRSDYWGQGTQVTVSW”, the “polyreactivity (PSR sort gate)” value is “high polyreactivity”.
In the case of “QVQLVESGGGLVQAGGSLRLTCAASGSIFWGYALGWYRQAPGKERELVATIRNRGGSTYYADSVKGRFTISRDNAKNTVYLQMNSLKPEDTAVYYCAADEGGFWWTYPYDSWGQGTQVTVSS” it was “low polyreactivity”.
As to “QVQLVESGGGLVQAGGSLRLSCAASGSIFWFNAMGWYRQAPGKERELVAAISTGGGTNYADSVKGRFTISRDNAKNTLYLKMNSLKPEDTAVYYCATYKVSRYISYDYWGQGPQVTVSS”, the “polyreactivity (PSR sort gate)” value is “low polyreactivity”.
As for “QVHLVESGGGLVQAGGSLRLSSAASGRIFPWNAMGWYRQAPGKERELVAAISFSAGRTYYADSVKGRFTISRDNAKNTVYLQMNSLKPEDTAVYYCNARIGSRGVWTGIIGYEYWGQGTQVTVSS”, the “polyreactivity (PSR sort gate)” value is recorded as “low polyreactivity”.
In the case of “QVQLVESGGGLVQVGGSLRLSCAASGFTFYDYAMGWYRQAPGKERELVAAMSRGGSTYYADSVKGRFTISRDNAKNTVYLQMNSLKPEDTAVYYCNARPTRIYHGMGYWGQGTQVTVSW” it was “low polyreactivity”.
On to “QVQLVESGGGLVQAGGSLRLSCAASGITFKYAMGWYRQAPGKERELVAAISGGGRTNYADSVKGRFTISRDNAKNTVYLQMNSLKPEDTAVYYCAAQGSRWWGFDYWGQGTQVTVSS”, for which the “polyreactivity (PSR sort gate)” value is recorded as “high polyreactivity”.
Regarding “QVQLVESGGGLVQAGGSLRLICAASGSTTFYAKGWYRPAPGKEWELVATISSSAGSTYYADSVKGRFTISRDNAKNNVYLEMNSLIPEDTAVFYCDAKYSQLRQYYRLDYWGQGTQVTVSS”, the “polyreactivity (PSR sort gate)” value was “low polyreactivity”.
In the case of “QVQLVESGGGLVQAGGSLRLSCAASGSILGYYAMGWYRQAPGKERELVAGIDYSAGSTYYADSVKGRFTISRDNAKNTVYLQMNSLKPEDTAVYYCAADVDSYWGTYDYWGQGTQVTVSS”, the “polyreactivity (PSR sort gate)” value was “low polyreactivity”.
In the case of “QVHLVESGGGLVQAGGSLRLSCAASGSNFKGNAMGWYRQAPGKERELVAAINRSGTSTYYADSVKGRFTISRDNAKKTVYLQMNSLKPEDTAVYYCAKKYFGHRFDYWGQGTQVTVSS” it was “high polyreactivity”; in that of “QVQLVESGGGLVQAGGSLRLSCAASGSIFRYNAMGWYRQAPGKERELVASINAGGGSTYYADSVKGRFTISRDNAKNTVYLLMNSLKPEDTAVYDCAAVAHSATRFRYYWRYDYWGQGTQVTVSS”, “high polyreactivity”.
For “QVQLVESGGGLVQAGGSLRFSCAASRLTFYWYAMGWYRQPPGKERELVAGISWSGGSTYADSVKGRFTITRDNAKNTVYLQLNSLKPEDTAVYYCAADTYYYRGQSYYYWGQGTEVTVSS”, the “polyreactivity (PSR sort gate)” value is recorded as “high polyreactivity”.
On to “QVQLVESGGGLVQAGGSLRLSCAASGSTFQLNAMGWYRQAPGKERELVAAISVRGGSTYYADSVKGRFTISRDTAKNTVYLQMHSLKPEETAVYYCATDSLYFLFAGDAVVRRPSYYWGQGTQVTVSS”, for which the “polyreactivity (PSR sort gate)” value is listed as “high polyreactivity”.
With “QVQLVESGGGLVQAGGSLRLSCPASGSIFRGYGMGWSRQAPGKERELVAAMSSSGGTYYADSVKGRFTISRDNAKKTVYLQMNSLKPEDTAVYYCNARVRTQQRWVDYWGQGTQVTVSS”, the “polyreactivity (PSR sort gate)” value is listed as “high polyreactivity”.
For “QVQLVESGGGLVQAGGSLRLSCAASGSTFKVNAMGWYRQAAGKEREFVAAITKNGGRTYYADSVKGRFTISRDYAKNTVYLQMNSLKPEDTAVYYCAARLYLPIIVVDLYGYDYWGQGTQVTVSS”, the “polyreactivity (PSR sort gate)” value is on record as “low polyreactivity”.
For “QVQLVESGGGLVQAGGSLRLSCAASGRIFYGNTMGWYRQAPGKERELVAAITIGDSTNYADSVKGRFTISRDNAKNTVYLQMNSLKPEDTEVYFCAKRNWWGYYKYDYWGQGTQVTVSS”, the “polyreactivity (PSR sort gate)” value is “low polyreactivity”.
In the case of “QVQLEESGGGLVQAGGSLRLSCAASGIIFSIYAMGLYRKAPGKERELVAAITYSGGRTYYADSVKGRFTISRDNAKNTVYLQMNSLKPEDTAVYYCAAVVYGEYYWGQGTQVTVSS” it was “high polyreactivity”.
For the sequence “QVQLVESGGRLVQEGGSLRLRCAASGSIFSGYAMGWSRQAPGKERELVAVITRGGNTNYADSVKGRFTISRDNAKNTVSLQMNSLTPEDTAVYYCAVDLRKSYRHKFDFNYWGQGTQVTVSS”, the “polyreactivity (PSR sort gate)” value is listed as “low polyreactivity”.
“QVQLVESGGGLVQAGGSLRLSCAASGRTFDWYAMGLYRQAPGKERELVAAISWSGGSTYYADSVKGRFTISRDNAKNTVYLQMNSLKPEDTAVYYCATDSYTEQSWVAEGYSGQGTQVTVSS”: the “polyreactivity (PSR sort gate)” value was “low polyreactivity”.
For “QVQLVESGGGFVQAGGSLRLSCAASGSICAGYAMGWYRQAPGKERVLVAGITIGGSTNYADSVKGRFTISRDNAKNTVYLQMNSLKPEDTAVYYCAARRVQSVYRIPRRYHSYGYWGQGTQVTVSS” the value was “high polyreactivity”; for “QVQLVESGGGLVQAGGSLRISCAASGLTFYRYAMGWYRQAPGKERELVAAIRVSGNTYYADSVKGRFTISRDNAKNTVYLEMNSLKPEDTAVYYFAAKPYYFYGMDYWGQGTQVTVSS”, “high polyreactivity”.
As to “QVQLVESGGGLVQAGGSLRLSCAASGRILPYNVMGWFRQARGKEREFVAAITGSGGDTYYADSVKGRFTISRDNAKNTVYLQMNSLKPEDTAVYYCAAAPYIGGSFGQTPGSGYWGQGTQVTVSS”, the “polyreactivity (PSR sort gate)” value is recorded as “low polyreactivity”.
Regarding “QVQLVESGGGLVQAGGSLRLSCAASGITFDGYAMGWYRQAPGKERELVAAISNTGDTTYYADSVKGRFTISRDNAKNTVYLQMNSLKPEDTAVYYCAGQRYYSYEYWGQGTQVTVSS”, the “polyreactivity (PSR sort gate)” value is “high polyreactivity”.
For “QDQLVESGGGLVRAGGSLRLSCAASGSIFVVNAMGLYRQAPGKERELVADINSGGSTNFADSVKGRFTISRDNAKNTVYLQMNSLKPEDTAVYYCAKSAVTGTYDYWGQGTLVTVSS”, the “polyreactivity (PSR sort gate)” value is “low polyreactivity”.
Consider “QVQLVESGGGLVQAGGSLRLSCAASGRIFEHNAMGWSRQAPGKEMEFVAAISSSGGSTYYADSVKGRFTISRDNAKNTVYLQMNSLKPEDTAVYYCNAGSTYYERNYWGQGTQVTVSS”, for which the “polyreactivity (PSR sort gate)” value is listed as “low polyreactivity”.
For “QVQLVESGGGLVQAGGSLRLSCAASGTTLYWNAMGWYRQAPGKERELVAAISRSGGSTYYADSVKGRFTISRDNAKNTVYLQMNSLKPEDTAVYYCAARRYVPHTEYYYWGQGTQVTVSS”, the “polyreactivity (PSR sort gate)” value is “low polyreactivity”.
In the case of “QVQLVESGGGLVQAGGSLRLSCAASGFIFVWYAMGWYRQAPGKERELVAGITASGGSTYYADSVKGRFTISRDNAKNTVYLQMNSLKPEDTAVYYCAADAWPLWLKLTPTSGGYWGQGTQVTVSS” it was “low polyreactivity”.
In the case of “QVQLVESGGGLVQAGGSLRLSCAASGFIIGSYTMGWNRQAPRKERELVASITKRGGSTYYADSVKGRFTISRDNAKNTVYLQMNSLKPEDTEVYYCAATYLFSHRSRYDYWGQGTQVTVSS”, the “polyreactivity (PSR sort gate)” value is given as “high polyreactivity”.
Consider “QVQLVESGGGLVQAGGSLRLSCAASGFIFYAYVMGWYRQAPGKERELVAAISRNGGSTYYADSVKGRFTISRDNAKNTVYLQMKSLKPEDTAVYYCAALSYYRYSQEDDYWGQGTQVTVSS”, for which the “polyreactivity (PSR sort gate)” value is “high polyreactivity”.
In the case of “QVQLVESGGGLVQAGGSLRLSCAASGSTFKPYTMGWYRPAPGKERELVAAISSVDSTYYADSVKGRFTISRDNAKKTVYLQMNSLKPEDTAVYDCNKRKSPTFTYAMNYWGQGTQGTVSS” it was “low polyreactivity”; in that of “QVQLVESGGGLVQAGGSLRLSCAASGRIFVPYVMGWYRQAPGKERELVASISDSDTSTYYADSVKGRFTISRDNAKNTVYVQMNSLKPEDTAVYYCNVDYWGQGTQVTVSS”, “low polyreactivity”.
As to “QVQLVESGGGLVQAGGSLRLSCAASGRIFRGNGMGWYRQAPGKERELVAAIRRSGGSTYYADSVKGRFTISRDNAKNTVYLQMNSLKPDDTAVFYCNADYTVVLSRVIYARGYWGQGTQVTVSS”, the “polyreactivity (PSR sort gate)” value is given as “high polyreactivity”.
For the sequence “QVQLVESGGGLVQAGGRLRISCAASGSIFGTYTMGWYRLAPGEERELVAAITSDGRTYYADSVKGRFTISRDNAKNTVYLQMNSLKPEDTAVYYCAADSSGYYWFNYWGQGTQVTVSS”, the “polyreactivity (PSR sort gate)” value was “low polyreactivity”.
For “QVQLVESGGGLVQAGGSLRLSCAASGFIFDPYAMGWYRQAPGKERELVARITWSGGRTYYADSVKGRFTISRDNAKNTVYLQMNSLKPEDTAVYYCNADVYGFDYWGQGTQVTVSS” the value was “high polyreactivity”; for “QVQLVESGGGIVQAGGSLRLSCAASGSIFYAYAMGWYRQAPGKERELVAAINRGDSTTYADSVKGRITISRDNAKNTVYLQMNSLKPEDTAVYYCAKSRPSRKYYAGVTGQGDYWGQGTQVTVSS”, “low polyreactivity”.
Regarding “QVQLVESGGGLVQAGGSLRLSCAASGYIFITYAMGWYRQAPGKERELVAAISRRGGRTYYADSVKGRFTISRDNAKNTVYLQMNSLKPEDTAVYYCAADPATSVYGGLNYWGQGTQVTVSS”, the “polyreactivity (PSR sort gate)” value is “high polyreactivity”.
In the case of “QVQLVESGGGLVQAGGSLRLSCAASGRIFADNGMGWYRQAPGKERELVASITSSGGDTYYADSVKGRFTISRDNAKNTVYLQMNSLKPEDTAVYYCATEFSWLFYGVWVVTFGDDYWGQGTQVTVSS” it was “low polyreactivity”.
